Laboratory results as given in patent US6451992.

Tested on: thrombostasin (thrombin inhibitor of Haematobia irritans saliva; tested as whole serotonin-induced saliva)

bovine thrombin
rates of hydrolysis of chromogenic substrate S238 (2.5-100 µM) by bovine thrombin (250 pM) alone and in the presence of horn fly saliva (equivalent to 2 flies): it may be a competitive inhibitor, as its effect is diminished when substrate is unlimited (100 µM)
